Data published in article PMC6642096 (Nature Communications, 2019).

Target: T1, LgB-NIX (UniProt O60238 1-219)
T1 construct: also called NIX (NanoBiT Large BiT fusion); not shown: Large BiT (LgB), N-terminal, kept
Experiment: split reporter (BiFC, NanoBiT)
Conditions: partners not purified

T1 sequence (O60238 whole entry, the tested form may be a part): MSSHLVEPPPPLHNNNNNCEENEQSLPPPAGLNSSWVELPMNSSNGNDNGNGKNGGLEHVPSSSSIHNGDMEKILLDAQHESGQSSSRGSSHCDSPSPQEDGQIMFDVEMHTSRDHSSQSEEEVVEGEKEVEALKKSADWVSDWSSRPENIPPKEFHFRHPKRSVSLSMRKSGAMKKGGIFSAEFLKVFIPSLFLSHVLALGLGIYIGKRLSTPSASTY

B1: vIRF-1-SmB (natural protein)
chain: MDPGQRPNPFGAPGAIPKKPCLSQGSPGTSGSGAPCDEPSRSESPGEGPSGTGGSAAAGDITRQAVVAAITEWSRTRQLRISTGASEGKASIKDWIVCQVNSGKFPGVEWEDEERTRFRIPVTPLADPCFEWRRDGELGVVYIRERGNMPVDASFKGTRGRRRMLAALRRTRGLQEIGKGISQDGHHFLVFRVRKPEEEQCVECGVVAGAVHDFNNMARLLQEGFFSPGQCLPGEIVTPVPSCTTAEGQEAVIDWGRLFIRMYYNGEQVHELLTTSQSGCRISSALRRDPAVHYCAVGSPGQVWLPNVPNLACEIAKRELCDTLDACAKGILLTSSCNGIFCVCYHNGPVHFIGNTVPPDSGPLLLPQGKPTRIFNPNTFLVGLANSPLPAPSHVTCPLVKLWLGKPVAVGKLEPHAPSPRDFAARCSNFSDACVVLEIMPKPLWDAMQ
notes: also called vIRF-1-SmB (NanoBiT Small BiT fusion); source: 293T, transiently transfected, in cells; not shown: Small BiT (SmB), C-terminal, kept
fold luminescence against HT-SmB with LgB-NIX: 10 fold
